The numbers were not newly measured in paper PMC6811625, which cites them from elsewhere.

In the data set the target is Im7 (Escherichia coli) (UniProt Q03708).
Chain of Im7 (Escherichia coli) (Q03708 whole entry): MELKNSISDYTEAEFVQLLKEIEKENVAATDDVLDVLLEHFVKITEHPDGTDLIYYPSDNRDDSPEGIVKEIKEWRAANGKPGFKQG

Chain of Spy (P77754 24-161): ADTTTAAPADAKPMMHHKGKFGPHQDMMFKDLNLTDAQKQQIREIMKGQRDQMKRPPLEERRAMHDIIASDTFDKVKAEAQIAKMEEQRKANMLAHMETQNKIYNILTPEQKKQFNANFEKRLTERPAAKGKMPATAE

As usually defined, the Kd is the equilibrium constant for the complex coming apart. For the substance Spy (from UniProt P77754), the Kd is 30 µM.
